Tests used:
rat adrenal gland = assay: Catecholamine secretion from perfused rat adrenal gland
Method: Male rats (Sprague-Dawley, each weighing 200 to 300 g) was anesthetized by an to intraperitoneal injection of thiopental sodium (50 mg/kgm), and the adrenal gland was excised from the rats according to the method of Wakade and Woo et al. (Wakade, J Physiol. 313, 463-480, 1981; Woo et al., Korean J Physiol Pharmacol., 12, 155-164, 2008).
Briefly, a cannula was inserted so as to perfuse the adrenal gland, as illustrated in FIG. 18. During the cannula insertion, heparin (400 IU/ml) was infused into the vena cava in order to prevent blood coagulation. Then, the adrenal gland was isolated from the body, and transferred to a leucite chamber which was kept at 37±1° C.
The adrenal gland was perfused at a rate of 0.33 ml/min with the aid of a peristaltic pump (ISCO® pump, WIZ Co. U.S.A.). The perfusion solution was a Krebs-bicarbonate solution: (mM) NaCl, 118.4; KCl, 4.7; CaCl2, 2.5; MgCl2, 1.18; NaHCO3, 25; KH2PO4, 1.2; glucose, 11.7.
The perfusion solution was continuously aerated with 95% O2+5% CO2 gas, and was maintained to have pH 7.4-7.5. In addition, the perfusion solution was supplemented with EDTA ([…]) and ascorbic acid ([…]) to prevent the oxidation of catecholamines (Woo et al., Korean J Physiol Pharmacol., 12, 155-164, 2008).
Gintonin (1˜10 μg/ml) or cyclopiazonic acid (10 μM) was applied by perfusion for 4 min while acetylcholine (5.32 mM) was infused at a dose of 50 μl using a three-way stopcock.
Prior to treatment with a material stimulating catecholamine secretion, the adrenal gland was left until the secretion of catecholamine in the absence of stimuli reached a constant level, that is, a background or basal level, which typically took 5˜10 min. Then, the adrenal gland was perfused with gintonin or other drugs, and perfusates effluent from the adrenal gland were collected at regular intervals of 4 min, and the amount of catecholamines released by drug stimulation was calculated by subtracting the background or basal level from measurements (Woo et al., Korean J Physiol Pharmacol., 12, 155-164, 2008).
In order to examine the effect of gintonin on the spontaneous secretion of catecholamine and on the stimulus-induced secretion of catecholamine, the adrenal gland was perfused with a Krebs solution containing gintonin alone or in combination with other drugs, after which the perfusates were collected until the amount of secreted catecholamine reached the background level. The collected adrenal perfusates were stored in tubes maintained at 4° C.
Catecholamine in the perfusates was quantified using a fluorospectrophotometer (Kontron Co., Milano, Italy) according to the methods of Anton and Sayre, and Lim. In this regard, each perfusate amounted to 0.2 ml (Woo et al., Korean J Physiol Pharmacol., 12, 155-164, 2008).

[1] = molecular target: T1, mutant R3.28A LPA3 receptor (Homo sapiens, UniProt Q9UBY5, R105A); assay: Intracellular Ca2+ in B103 cells with mutant R3.28A LPA3 receptor; format: cell-based; settings: R3.28A LPA3 receptor-transfected B103 cells
T1 construct: expressed in transfected cells; host or cells: B103 rat neuroblastoma cells
T1 sequence (Q9UBY5 1-353 R105A): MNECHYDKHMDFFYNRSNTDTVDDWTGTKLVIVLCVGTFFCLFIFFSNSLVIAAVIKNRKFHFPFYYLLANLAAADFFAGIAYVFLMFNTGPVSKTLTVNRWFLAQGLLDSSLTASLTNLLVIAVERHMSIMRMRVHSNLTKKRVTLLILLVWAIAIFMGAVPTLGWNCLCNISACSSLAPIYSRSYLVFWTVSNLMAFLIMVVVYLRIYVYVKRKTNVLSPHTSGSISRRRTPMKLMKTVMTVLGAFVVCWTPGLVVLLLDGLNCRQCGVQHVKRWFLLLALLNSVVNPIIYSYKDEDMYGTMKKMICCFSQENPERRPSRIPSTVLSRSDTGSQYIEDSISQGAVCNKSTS
Text: That is, LPA receptors have specific amino acid residues, known as binding sites, which are responsible for interaction with LPA, and the binding of LPA to the specific amino acids starts to exert the function. This Example was configured to examine a change in the gintonin-induced intracellular calcium increase through LPA receptor activation in LPA3 receptor-expressing cells when specific amino acids of the LPA binding site in LPA receptors were mutated.
To this end, a mutant LPA receptor in which Arg3.28, known as a common LPA binding site of LPA1-LPA3 receptors, was mutated as Arg3.28Ala (that is, Arg is substituted by Ala; R3.28A) or Trp4.64, known as an LPA-binding site of LPA3 receptor was mutated as Trp4.64Ala (that is, Tip is substituted by Ala; W4.64A) (Valentine et al., J. Biol. Chem. 283, 12175-12187, 2008) was transfected to B103 cells which were then tested for the action of gintonin, in comparison with cells transfected with the wild-type. […] From the result, it is henceforth understood that the gintonin-triggered LPA receptor activation is achieved by interaction with the LPA binding sites of LPA receptors and that gintonin occupies the LPA binding sites to activate LPA receptors.

HUVECs = assay: Scratch wound healing in HUVEC monolayers; format: cell-based, human; settings: gintonin 30 μg/ml, 20 hrs
Method: In this Example, an examination was made of the effect of gintonin on wound healing. For use in this examination, HUVECs were cultured in an M199 medium supplemented with heat-inactivated 20% FBS, […] basic fibroblast growth factor, 5 units/ml heparin, and streptomycin and penicillin in a 5% […] incubator.
HUVECs (2.5×10^5/well) were seeded to 24-well plates, and incubated for 24 hrs, and then for an additional 6 hrs in M199 supplemented with 1% FBS. Single wounds were made in the confluent monolayers by dragging a sterile 200-μl pipette tip across the monolayer to create a cell-free path. Floating cells were washed off twice with M199 supplemented with 1% FBS. The adherent cells were incubated with gintonin (30 μg/ml). Before and after treatment with gintonin, HUVECs in each well were observed and photographed (100×) using an inverted fluorescence microscope (AxioVert200; Carl Zeiss, Germany). Morphological comparison with non-treated cells was made.
In the assay for wound healing of gintonin, uncovered wound areas were measured using AxioVision 4 (Carl Zeiss, Germany) (FIG. 26A), and the time process of covering the scratch wound areas was monitored in the presence or absence of gintonin (FIG. 25B). In addition, uncovered scratch areas of gintonin-treated groups were compared with that of the control and expressed as % of that of the control (FIGS. 26C and D).

B1: gintonin: ginseng-derived glycolipoprotein; structural protein of ginseng major latex-like protein (MLP151) and ribonuclease-like storage proteins; crude gintonin used in tests (protein)
chain 1: MGLTGKLICQTGIKSDGDVFHELFGTRPHHVPNITPANIQGCDLHEGEFGKVGSVVIWNYSIDGNAMIAKEEIVAIDEEDKSVTFKVVEGHLFEEFKSIVFSVHVDTKGEDNLVTWSIDYEKLNESVKDPTSYLDFLLSVTRDIEAHHLPK
chain 2: RSDYPWAMFALRLQWPAGFCEVNNACDTKSLLNTFTIHGLYPYNAKGTPALYCDGTAFDVNSVSDFLAEMHLAWPSHETNTEDIQFWEHEWKKHGRCSEALLKQTDYFRTALAFRKAFDIVGLLNQEGIYPNNDLYRPKMIKEAIKKHLNAVPEIDFTKNENSEYVLTDINVCVNQQATRFVDCPTDDATDDYRLKFVRLPSKMKFADPRTNSII
catecholamine secretion after acetylcholine (rat adrenal gland; gintonin 1 μg/ml, pre-treatment with 5.32 mM acetylcholine): incapacitated the effect
catecholamine secretion after acetylcholine (rat adrenal gland; gintonin 3 μg/ml, 5.32 mM acetylcholine): continually promote the secretion of catechlamine
catecholamine secretion after acetylcholine (rat adrenal gland; gintonin 10 μg/ml, 5.32 mM acetylcholine): stimulates the secretion of catecholamine in the early stage, but could not induce the secretion since then
catecholamine secretion (rat adrenal gland; gintonin 1~10 μg/ml, perfusion at 15-min intervals): continually secrete catecholamine in a dose-dependent manner
gintonin-induced intracellular calcium increase vs wild-type [1]: greatly reduced
covering of scratch wound area (HUVECs): covered the wound area

Source: US20140234868A1, “USE FOR GLYCOLIPOPROTEIN GINTONIN, ISOLATED AND IDENTIFIED FROM GINSENG, AS A NATURAL MEDICAL-PLANT DERIVED LIGAND” (KONKUK UNIVERSITY INDUSTRIAL COOPERATION CORP., priority 2011, published 2014)
